Results on three substances are retold here after patent US10087225B2, “Formulation of MK2 inhibitor peptides” (MOERAE MATRIX, INC., priority 2015, dated 2018).

Common to all, as to assay: Kinase Profiling Assay
What all share (format): biochemical
Holding throughout (conditions): for % activity: 100 μM

One experiment has as its target T1, Bmx(h) (Homo sapiens, UniProt P51813).
T1 sequence (P51813 1-675): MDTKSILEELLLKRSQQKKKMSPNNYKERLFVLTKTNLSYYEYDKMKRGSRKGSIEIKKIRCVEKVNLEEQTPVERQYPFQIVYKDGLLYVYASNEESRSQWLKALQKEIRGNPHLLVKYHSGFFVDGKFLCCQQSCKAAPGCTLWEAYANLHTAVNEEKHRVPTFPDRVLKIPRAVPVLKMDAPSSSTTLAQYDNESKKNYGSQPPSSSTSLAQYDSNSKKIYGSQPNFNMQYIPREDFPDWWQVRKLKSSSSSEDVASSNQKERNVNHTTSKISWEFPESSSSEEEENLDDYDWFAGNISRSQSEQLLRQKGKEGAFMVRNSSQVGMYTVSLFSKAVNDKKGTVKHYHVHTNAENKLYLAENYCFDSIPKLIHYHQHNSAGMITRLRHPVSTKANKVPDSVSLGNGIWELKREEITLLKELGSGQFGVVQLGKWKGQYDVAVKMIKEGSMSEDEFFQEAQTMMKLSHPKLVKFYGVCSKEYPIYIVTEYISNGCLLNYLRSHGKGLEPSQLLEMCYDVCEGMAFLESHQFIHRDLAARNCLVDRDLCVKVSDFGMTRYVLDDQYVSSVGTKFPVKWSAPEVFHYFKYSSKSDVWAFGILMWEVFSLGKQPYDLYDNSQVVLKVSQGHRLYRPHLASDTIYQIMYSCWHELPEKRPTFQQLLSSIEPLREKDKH

The next experiment has as its target T2, Txk(h) (Homo sapiens, UniProt P42681).
T2 sequence (P42681 1-527): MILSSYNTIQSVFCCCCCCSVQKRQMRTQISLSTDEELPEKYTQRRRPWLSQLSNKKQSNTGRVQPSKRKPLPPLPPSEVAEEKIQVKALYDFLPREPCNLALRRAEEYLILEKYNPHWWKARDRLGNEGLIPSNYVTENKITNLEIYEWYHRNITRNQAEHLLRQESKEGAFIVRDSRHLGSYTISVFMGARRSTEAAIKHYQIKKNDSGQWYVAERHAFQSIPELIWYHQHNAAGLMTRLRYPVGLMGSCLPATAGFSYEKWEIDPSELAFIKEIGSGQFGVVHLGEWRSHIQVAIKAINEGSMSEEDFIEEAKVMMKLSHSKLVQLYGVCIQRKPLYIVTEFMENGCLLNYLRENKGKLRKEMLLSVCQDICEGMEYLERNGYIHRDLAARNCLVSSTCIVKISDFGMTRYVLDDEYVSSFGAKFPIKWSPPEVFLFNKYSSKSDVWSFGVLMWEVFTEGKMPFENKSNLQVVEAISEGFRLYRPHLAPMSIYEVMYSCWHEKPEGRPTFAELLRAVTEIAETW

In a further experiment the target is Tie2(h) (Homo sapiens, UniProt Q02763).
The target of another experiment is T3, EphB4(h) (Homo sapiens, UniProt P54760).
T3 sequence (P54760 16-987): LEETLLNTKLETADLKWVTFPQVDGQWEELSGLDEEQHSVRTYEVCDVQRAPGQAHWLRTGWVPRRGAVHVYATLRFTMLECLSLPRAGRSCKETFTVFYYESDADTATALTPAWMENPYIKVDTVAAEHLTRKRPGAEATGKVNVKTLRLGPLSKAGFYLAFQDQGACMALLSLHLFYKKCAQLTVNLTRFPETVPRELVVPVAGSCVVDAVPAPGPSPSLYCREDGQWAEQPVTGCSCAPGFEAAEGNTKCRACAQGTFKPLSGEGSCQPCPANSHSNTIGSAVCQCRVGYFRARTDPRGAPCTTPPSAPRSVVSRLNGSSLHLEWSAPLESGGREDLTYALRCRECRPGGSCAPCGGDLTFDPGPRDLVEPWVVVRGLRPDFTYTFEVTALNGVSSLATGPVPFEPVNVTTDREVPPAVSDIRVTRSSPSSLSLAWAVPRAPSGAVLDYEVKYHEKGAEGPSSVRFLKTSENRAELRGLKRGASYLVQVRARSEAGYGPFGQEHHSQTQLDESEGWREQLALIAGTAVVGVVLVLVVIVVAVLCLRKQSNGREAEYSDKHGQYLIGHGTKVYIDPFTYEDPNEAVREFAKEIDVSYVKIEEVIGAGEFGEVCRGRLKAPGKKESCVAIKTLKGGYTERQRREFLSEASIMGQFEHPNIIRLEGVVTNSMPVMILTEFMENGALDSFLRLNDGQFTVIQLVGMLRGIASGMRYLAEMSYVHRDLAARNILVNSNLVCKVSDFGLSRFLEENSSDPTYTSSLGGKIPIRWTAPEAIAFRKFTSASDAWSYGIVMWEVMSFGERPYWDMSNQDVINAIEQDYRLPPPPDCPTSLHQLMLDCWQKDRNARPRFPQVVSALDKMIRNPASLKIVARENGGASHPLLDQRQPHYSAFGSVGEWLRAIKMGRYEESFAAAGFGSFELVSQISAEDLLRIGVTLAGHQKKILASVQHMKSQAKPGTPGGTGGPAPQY

Tie2(h), sequence (Q02763 23-1124): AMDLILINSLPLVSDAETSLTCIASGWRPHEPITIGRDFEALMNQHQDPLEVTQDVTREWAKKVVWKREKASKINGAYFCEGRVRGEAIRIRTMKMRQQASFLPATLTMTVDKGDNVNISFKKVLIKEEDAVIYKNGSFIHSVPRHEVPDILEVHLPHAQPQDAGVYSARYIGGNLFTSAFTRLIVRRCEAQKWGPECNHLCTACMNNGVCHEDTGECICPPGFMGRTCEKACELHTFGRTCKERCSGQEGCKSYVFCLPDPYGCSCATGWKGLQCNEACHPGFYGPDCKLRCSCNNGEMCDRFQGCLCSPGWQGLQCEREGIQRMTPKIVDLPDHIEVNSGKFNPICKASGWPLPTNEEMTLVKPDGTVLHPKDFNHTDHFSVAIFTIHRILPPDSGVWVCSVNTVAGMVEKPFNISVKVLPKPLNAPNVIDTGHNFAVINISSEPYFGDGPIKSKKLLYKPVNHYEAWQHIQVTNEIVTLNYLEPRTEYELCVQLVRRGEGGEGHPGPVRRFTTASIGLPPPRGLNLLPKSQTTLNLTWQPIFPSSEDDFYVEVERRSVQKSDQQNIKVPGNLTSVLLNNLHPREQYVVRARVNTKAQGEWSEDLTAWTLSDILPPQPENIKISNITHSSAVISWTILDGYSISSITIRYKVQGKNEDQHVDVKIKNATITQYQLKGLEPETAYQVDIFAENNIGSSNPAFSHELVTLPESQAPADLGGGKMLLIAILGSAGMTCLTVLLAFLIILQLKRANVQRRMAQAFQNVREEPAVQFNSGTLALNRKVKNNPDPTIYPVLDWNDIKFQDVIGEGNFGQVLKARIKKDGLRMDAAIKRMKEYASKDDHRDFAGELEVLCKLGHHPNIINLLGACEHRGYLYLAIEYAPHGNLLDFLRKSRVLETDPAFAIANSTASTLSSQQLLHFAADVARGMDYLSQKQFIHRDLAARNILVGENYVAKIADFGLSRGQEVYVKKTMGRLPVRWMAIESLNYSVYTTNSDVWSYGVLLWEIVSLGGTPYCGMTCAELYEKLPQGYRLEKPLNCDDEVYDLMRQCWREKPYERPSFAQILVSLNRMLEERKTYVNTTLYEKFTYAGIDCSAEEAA

For H-YARAAARQARAKALARQLGVAA-OH [MMI-0100], the activity at 100 µM came out at 62% at Bmx(h), 87% on Txk(h), 28% at Tie2(h) and 62% at EphB4(h).
On to “HRRIKAWLKKIKALARQLGVAA (Mammalian) [MMI-0500]”, for which the “% activity” value stood at 45% in the experiment with Bmx(h), 10% in the experiment with Txk(h), 22% in the experiment with Tie2(h) and 38% with EphB4(h).
As to “YARAAARQARAKALNRQLGVA (Mammalian) [MMI-0200]”, the “% activity” value in the experiment with Bmx(h) worked out at 76%; in the experiment with Txk(h), 98%; with Tie2(h), 53%; in the experiment with EphB4(h), 131%.
